Assay: soluble on expression in E. coli; label from the status in PepcDB or PDB records

| Sequence | soluble on expression in E. coli |
| --- | --- |
| MLCLGIEGTAEKTGVGIVDEAGNVLSLRGKPLIPEKGGIHPREAAEHHAKWIPRLIAEACRDAGVELGEIGLISFSRGPGLGPALRTVATAARTLALSLDVPIVGVNHCIGHIEIGRLTTGASDPVSLYVSGGNTQVIAFNEGRYRVFGETLDIAVGNMLDQFARESGLGHPGGPVIEQLALKASEYIELPYSVKGMDISFSGLLTAALRKMEAGASLEDLAYSIQETAFSMLVEVTERALAYTEKNQVLLCGGVAVNRRLRDMLREMCQEHHVEFHMPPPEYCGDNGAMIAWLGQLVYKYRGPDALEDTTVVQRYRTDEVDVPWMRESEAGIELPPDILAKGAEANIYRGQWIGRPCIIKERISKGYRIPEIDQKLRSSRTRREARLINQAKGAGVHTPVLFDVDPDGGVMVMEEVRGTPFRDAVEDTELCSRIGEAIGRLHHAGIIHGDLTGSNIIIRGGDVVFIDFGLGRFSDEIEDMGVDLLVLKKSLESTHYALAGECFSRVLEGYGKIIDADIQSKIREIESRGRYTD | soluble |
| MLDKLGGIAVQPEALTWLLTPCRFKAELLTRIENAKTSIYIAALYLEDDEAGREILQVLMTAKANNPALDIKVLVDFHRARRGLIGHKGDSGNYLMYRKVMAEAKHPIEIMGVPVKSREFMGVLHLKGFVIDDAVIYSGASLNNIYLQQNDKYRFDRYHVIESAELARSMRAMIQRYIIADPAVTSLTQDAQQEVLPPKTDVRSFKLRLSQAQYEFNETRSGNRVTPLLGLGRKHNLLNKTVIAMVEESKDRLFICTPYFNPPYILVRALAKHLRKGKRIDIVVGDKTANDFYIPPEQDFSTIGALPYLYEQSLRKFAKRQQWAIDNGQLNIHLWKHGINSYHLKGISTDGRKHLITGSNLNPRAWALDLENGILIHDETGSWKAQFEAEQAHILEHTQRLYHYSQVDTLQSYPDPVKKIMNRIRRLKADFLLRRILLEHHHHHH | soluble |
| MLDKQTMVTAHNALPGRTTAMSIDDTHFVNGSSLTAAPQSGQQQILIGMGCFWGAERLFWQLDGVISTSVGYSGGFTPNPTYEEVCSGKTGHTEVVRVIFDPERLPLTELLRAFWERHDPTQGMRQGNDRGTQYRSAIYTFSEDQREIAEASKAAYQALLTAQHRPSITTEILPAGAYYFAETYHQQYLAKNPNGYCGLGGTGVCFPPHSTL | not soluble |
| MLDLNRKLAKLEEEGKKIKVALIGAGHMGNGMVSQMANMKGIEASIVVDINLELAHKAFTDAGIDEEIIDNVTNEKDAEIKLQEGKVLTCNDFLVACKTKSIDVVIDATGGIAIGAEIALNSILNKKHIVMLNAETDCVVGPILKKLADDAGVIFTGSAGDEPGAVMELFDFADAMGFEVRVIGKGKNNKLDLDCNPDTVREEAERKGASPHMIASFKEGTKTMVEMALMCNATGFVPDVRGGHGIEATVNEVPKKYALKSEGGVLDNYGVVDFVNGIAPGVFVVVAHKLKAVNDELKYLSMGDGPNYILYRPYHLCSLETPLSAAMAVLDHKATIVPKAGLVAEVMTIAKKDLKKGEFMDGYGAYTCYGTIEKYDVAKAMNAVPIGLISKKTKVVKDIKKGEVITYDMVEIEKDTTLYHLRQLQEKIFG | not soluble |
| MLDPARSFDIIGDVHGCALTLERLLDALGYKRVAGVWRHPRRQALFLGDIVDRGPRIREALHIVHDMVEAGQAFCIMGNHEYNALGWVTPALPGSGKAYVREHTPRHARLIDETLTQFAQHPGDWHDFVNWFYQLPLFIDAGRFRLVHACWDPRLIEPLRQQYPDGRIDEHFIQASAVSGSFADTVCNRLLRGTDMRLPDGLTLTGGDGLTRAFFRTKFWEEDPKTYGDIVFQPDALPEEVASTPLSHSQKNALLRYDEDQPMLFVGHYWRSGRPAPIRANLACLDYSAVLYGKLVAYRLDDETRIDPHKFVWVDVDRPQANQLEHHHHHH | soluble |
| MLDSYPGHFLPNTEAPTEEEALIALLALGGYDPDNMDGKPLTMESAVEILRKDGSALASLEEETILNLKETYVNSVGLLGKYVPKVYNGDILFFRSTVIPDWFDPISPNTWLNYLDGQIVQHDIDCRHKDLCQPGPLTEIGQVLAKYLQNKKGVSRV | not soluble |
| MLEFDTTQDQLANIKVIGVGGGGNNAVNRMIEHGVQGVDFIAVNTDAQALNLSKAETKMQIGGKLTRGLGAGANPEVGKKAAEESKEQIQEALRGADMVFVTAGMGGGTGTGAAPVVAQVAKELGALTVGVVTRPFTFEGRKRATQAASGIAAFKENVDTLIVIPNDRLLEIVDKNTPMLEAFREADNVLRQGVQGISDLIATPGLINLDFADVKTIMSNRGSALMGIGSGNGENRAAEAAKKAISSPLLETSIDGAQGVIMNITGGANLSLYEVQEAADIVASASDPEVNMIFGSVINEGLKDDIVVTVIATGFDDSIATQPPKPIIRPNVNHTQQQQQPVAQPPKQREVKREMKREEPVVHERHSDSDSDDIDIPAFLRNRRRR | not soluble |
| MLEIDNQTPLESDFLLLEKIANVLAPTQIIELVLVSDETIREINKDLRGCDYATDVLSFPLEAIPHTPLGSVVINAPLAQTNALKLGHSLENEIALLFIHGVLHLLGYDHEKDKGEQRQKESELIKAFNLPLSLIERTQDLEHHHHHH | not soluble |
| MLEIKRYKNRVASRKCRAKFKQLLQHYREVAAAKSSENDRLRLLLKQMCPSLDVDSIIPRTPD | soluble |
| MLEKTLLKIALDLSLSLPKKAHYQRLMLAVNEVMPCDAVALLVLQDDYLVPVAVDGLSPEVLGMRFSPEEHPRLKAILSSRKPIRFDADSSYPDPYDGLLSIDPKRVLDVHDCMGCCLYVEENLVGVLTLDALQVGAFSNVDDITVATLAALAAATIRNANCIAVLEKRNEKALCLTNELVKDAHKAKGDD | not soluble |
| MLERIKSGVIGLDEILGGGFIKNTVNAVVGGMGCGKTIFCMNYLLEGLENGEKCMYASPDLDVDEFLRLAESMHWDFSKYIDNGQLNIMTVVAEDAASFIKMAFEYDRVAVDALSPLVIDVEAGSRKEIGWLLKNLKSKGTALITVEEPLRQNADLLLLLADSVISLRYTGYGGPFSRTLRVLKHRMSWHGDGVYPFYIIEGAGIVIDEKRGEGFELEEEMNLPERAKEKIAEMCKKGTLTLEDISKIKRRIP | not soluble |
| MLETYDWNNKLTYLKNTRDLYYNDDYVSFLVNTVWKITKPVHIVDYGCGYGYLGLVLMPLLPEGSKYTGIDSGETLLAEARELFRLLPYDSEFLEGDATEIELNDKYDIAICHAFLLHMTTPETMLQKMIHSVKKGGKIICFEPHWISNMASYLLDGEKQSEFIQLGVLQKLFESDTQRNGKDGNIGMKIPIYLSELGVKNIECRVSDKVNFLDSNMHHNDKNDLYQSLKEEGIAGDPGDKQQFVERLIARGLTYDNALAQYEAELRFFKALHLHSSLVYAPNMKITFGEIECMAGDPLEHHHHHH | soluble |
| MLFDHLRDEVMRLDAGITQEVLKLYIAFKAETNFVDVVPQKSRLRLSLNMQFHELVDPKGIAKDVTNVGRWGNGDVEIGFSDLAQLPYIMGLIRQAFEKQMESALV | not soluble |
| MLFTVTAPKEVYTVDVGSSVSLECDFDRRECTELEGIRASLQKVENDTSLQSERATLLEEQLPLGKALFHIPSVQVRDSGQYRCLVICGAAWDYKYLTVKVKASYMRIDTRILEVPGTGEVQLTCQARGYPLAEVSWQNVSVPANTSHIRTPEGLYQVTSVLRLKPQPSRNFSCMFWNAHMKELTSAIIDPLSRMEPKVPRT | soluble |
| MLHAKIETLGVDPQNGSVVVLLRTENDKLLPIVIGPLEAHHIVVALQGEKPPRPLTPDLLLSVMEMLQAKLKRVEIVDLRDGTFYARLILEHRGIELEVDARPSDAMALALRAGAPILVAEEVVEKAGVEEANIRPHGAAEA | soluble |
| MLHCLDEFGNLKLKAIIDWQGVSTLPPGLDLSRLLMGCLSAHERRERGLEMLKLYHETFNQVLGKELFSFQELQDSYNLYYPMMAMALLPLVSSLAENSQVSEVEKAQIRFKTETKLVAMMEDLIEVHEYNLKHFPEILKG | not soluble |
| MLIAFEGIDGSGKTTQAKKLYEYLKQKGYFVSLYREPGGTKVGEVLREILLTEELDERTELLLFEASRSKLIEEKIIPDLKRDKVVILDRFVLSTIAYQGYGKGLDVEFIKNLNEFATRGVKPDITLLLDIPVDIALRRLKEKNRFENKEFLEKVRKGFLELAKEEENVVVIDASGEEEEVFKEILRALSGVLRV | soluble |
| MLIFGVIMVTIIVLFHPILTNQRDTIVTSTFKEIASDACYYINLGVKVEDYEHEPLNNLVGNVKCNFLGISVDSTTGEIRVTLKFEVNGNAQDFASGIIEYIKRRITEIRGFTITDKGEIFYRDSKITIEILTLEHHHHHH | not soluble |
| MLIKLTGGTVYDPANGIDGQVRNLFIRDGRIVHSLNGATPDQEYDLRGKVVMAGAIDMHTHIGGGKVTIARNLLPEDHRADPEPRRGLMRAGCGHAAPSTLTTGYRYAEMGYTAGFEPAVLPINARQAHMEMADVPLLDVGGYVMLGSDDFFLRLLSAGSDQKLINDYVAWTIRSAKAIGIKVVNPGGISAFKFNQRMLDLDEKHVYYGVTPRQILKSLARAVHELGVPHPLHVHGCNLGVPGNVETTLNTISGIEGLPMHLTHIQFHSYGVEGDRKFSSGAARIAEAINANKNITIDVGQILFGQTVTASGDSMRQHANAGHAHPDKWVCMDIECDAGCGVVPFKYRDKNFVNALQWCIGLETFLLIDDPWRVFLTTDHPNGAPFTTYPHLIRLLMDKSFRNDMLATINPEAAALSTLGSIDREYSLYEIAIMTRAGAARLLGLTDRGHLGAGAAADITVYTDQADKEKMFTRPDYVFKDGELVVRNGEVVKVVWGNLHTVQPEFDNGIEARLRDYFDRYHTMKLDNFVINDWEIEGDGRSKILVHPCHQGTRSLEHHHHHH | not soluble |
| MLIKRLAFAIMTLVIMTSAGCGFKLQRSYQIPEQLNQLSLSSSDEYSELTRLVRERLRLNNVKIVDAANDVPVLRLITDSLERSTLSLYPTGNVAEYELIYFVEFAVALPGKEAQPFKIEIRRDYLDDPRTALAKSREMELLVKEMRIQAADRILQSMASTEVNLEHHHHHH | soluble |
| MLIVGINGSPKKEGNTKYLINTVLEEAKSQGVETMVLEVGELLNSVKNPFCVVCSNPCSSICYKGTKLEEAYEILKKADAIVMGSPVYFGSVSAQLKAFFDKTRKLRSEKALYNKFACGVTVGGARFGGQETTMKALHDIMLVHGMTIVGDGYVGDDCGHHGVCAQQPADKDEFAIKRAKILGRRLVDVCKKAGALEHHHHHH | soluble |
| MLIVLPPSETKAVGGKNPAIDFDSLHFPTLNPIRKEIAHDLARLDISQAQEILKLSQKLLPEAQRNIELFQSPTMPAVLRYTGVLYDALDATSLPSSTWEHLAIGSALFGVVMANDNIPHYRLSGTTKLPCADASVPTLKRRWGNAISTALSDTNEVILDLRSGTYQQLGKVKHAITVRVESEDSDGKRSVISHFNKHYKGQLARALLLHDVTPDPDHAIEDLIGMTQECGFAVEHSKPHELTVVITQ | not soluble |
| MLKKIERAQQLLKKEAAVFRCPTCHEPMHLEGVGLICQQRHQFDLSKKGTLYFLNHGVQTEYNKKMFTSRGKMIQSGMYAPVLNKIMHYLPQNKTVVDVGCGEGSFLAELSQAGLSGLKIGFDLSKEGIYLASNQPIDAFWCVADLTNLPFANEGLDTILNIFSPSHYQEFRRVLKADGTVIKIIPEENYLKELRAAFYPNDEKKQSYSNQKVVQRFAEELAVEVDERITYCFDIPEERRLDLLEMSPLEWQVSQEVKAELQQRPLEKITIDVRLLVGRKR | not soluble |

From the DeepSol protein solubility set
